Results published in the nanobody polyreactivity screen of Harvey et al. (2022).

Assay: yeast display, Sf9 membrane polyspecificity reagent, FACS + sequencing; frameworks hold sequencing errors
How it was run: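 Using colony PCR, genes from sorted yeast display clones were amplified, then sequenced on MiSeq at 2 × 250 and filtered by CDR length. The clones had been stained with 10% biotinylated, detergent-solubilized Sf9 membrane reagent for 1 hour at 4 °C and sorted by FACS into low and high (top ~1%) gates on anti-HA and streptavidin fluorescence. Polyreactivity labels come from the gate of origin.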

Sequence	polyreactivity (PSR sort gate)
QVQLVESGGGLVQAGGSLRLSCAASGSIFSVYAMGWYSQAPGKEREVVAASTSSGGSTYYADSVKGRFTISRDNAKNTVHFQMNSLKPEDTAVYYCAADKYVRRLSWYRYGYWGQGTQVTVSS	high polyreactivity
QVQLVESGGGLVQAGGSLRLSCAASGSIFSWYAMGWYRQAPGKERELVAAITWTGGSTYYADSVKGRFTISRDNAKNTVYLQMLSLKPEDTAVYYCAARRVVYRYYWYSAYDYWGQGTQVTVSS	high polyreactivity
QVQLVESGGGLVQAGGSLRLSCAASGSIFSWYAMGWYRQAPGKEWELVAAITWSGGSTYYADSVKGRFTISRDNAKKTVYLQMNSLKPEDTAVYYCAASYDIYGNYRRYDYWGQGTQVTVSS	high polyreactivity
QVQLVESGGGLVQAGGSLRLSCAASGSIFSWYTMGWYRQAPGKERELVAAISRRGGSTYYADSVKGRFTISRDNAKNTVFLQMNSLKPEDNAVYYCAAAHPATRYDYWGQGTQVTVSS	high polyreactivity
QVQLVESGGGLVQAGGSLRLSCAASGSIFSWYTMGWYRQAPGKERELVARITTSGGTSTYYADSVKGRFTISRDNAKNTVYLQMNSLKPEDTAVYYCAADSPTSLYEYWGQGTQVTVSS	high polyreactivity
QVQLVESGGGLVQAGGSLRLSCAASGSIFSYNGKGWYRQAPGKERELVATISASSVTTYYADSVKGRFTISRDNAKNTVYLQMNSLKPEDTAVYYCARDAYSVYYYVFLHWEYDYWGQGTQVTVSS	high polyreactivity
QVQLVESGGGLVQAGGSLRLSCAASGSIFSYYAMGWSRQAPGKERELVAAIRRGGSTNYADSVKGRFTISRDNAKNTVYLQMNSLKPEDTAVYYCAASLGWRPSFSYYWGQGTQVTVSS	high polyreactivity
QVQLVESGGGLVQAGGSLRLSCAASGSIFSYYAMGWYRPAPGKERELVAAISKRGPSTYYADSVKGRFTISRDNAKNSVYLLMNSLKPEDTAVYYCAAKYSRRSSVSYYYWGQGTQVTVSS	high polyreactivity
QVQLVESGGGLVQAGGSLRLSCAASGSIFSYYAMGWYRQAPGKEREFVAAITKSGGSTYYADSVKGRFTISRDNAKNTVYLQMNSLKPEDTAVYYCAADEGGFWWTYPYDSWGQGTQVTVSS	low polyreactivity
QVQLVESGGGLVQAGGSLRLSCAASGSIFSYYAMGWYRQAPGKEREFVAAITKSGGSTYYADSVKGRFTISRDNAKNTVYLQMNSLKPEDTAVYYCAVRYKLYYYGYDYWGQGTQVTVSS	low polyreactivity
QVQLVESGGGLVQAGGSLRLSCAASGSIFSYYAMGWYRQAPGKERELVAAISYSGSDTYYADSVKGRFTISRDNAKNTVYLQMNSLKPEDTAVYYCAAEDPSYSYDYWGQGTQVTVSS	low polyreactivity
QVQLVESGGGLVQAGGSLRLSCAASGSIFSYYAMGWYRQAPGKERELVAAITRGGTTYYADSVKGRFTISRDNAKNTVYLQRNSLKPEDTAVYYCAASDYYGEYEYWGQGTQVTVSS	high polyreactivity
QVQLVESGGGLVQAGGSLRLSCAASGSIFSYYAMGWYRQAPGKERELVAGITWSGGRTYYADSVKGRFTISRDHAQNTVYLQMNSLKPEDTAVYYCAAVQWFSRRSRYDYWGQGTQVTVSS	high polyreactivity
QVQLVESGGGLVQAGGSLRLSCAASGSIFSYYAMGWYRQAPGKERELVATISSVGSTNYADSVKGRFTISRDNPKNTVYLQMNSLKPEDTAVYYCAATIGHNGFDYWGQGTQVTVSS	low polyreactivity
QVQLVESGGGLVQAGGSLRLSCAASGSIFSYYAMGWYRQAPGKERELVATISWSGGSTYYADSVKGRFTISRDNAKNTVYLQMNSLKPEDTAVYYCAARKYGQRYRRDYWGQGTQVTVSS	low polyreactivity
QVQLVESGGGLVQAGGSLRLSCAASGSIFSYYAMGWYRQAPGKERELVSANTSGDGTNYADSVKGRFTISRDNAKNTVYLQMNILKPDDTAVYYCAADAVDSYWREDYWGQGTQVTVSS	low polyreactivity
QVQLVESGGGLVQAGGSLRLSCAASGSIFSYYDMGWYRQAPGKERELVASISSGGSTYYADSVKGRFTISRDNAKNTVYLQMNSLKPEDTAVYYFGAVSRWLYWEDVYWGQGTQVTVSS	low polyreactivity
